{
  "source": "patent US20240191187A1",
  "about": "“MEDIA AND METHODS FOR GROWING MAMMARY ORGANOIDS” (STEMCELL TECHNOLOGIES CANADA INC., priority 2021, published 2024)",
  "molecules": {"B1": {"name": "BMP4: BMP signaling activator (protein, UniProt P12644 293-408, looked up)", "Bone morphogenetic protein 4": "SPKHHSQRARKKNKNCRRHSLYVDFSDVGWNDWIVAPPGYQAFYCHGDCPFPLADHLNSTNHAIVQTLVNSVNSSIPKACCVPTELSAISMLYLDEYDKVVLKNYQEMVVEGCGCR"}, "B2": {"name": "RSPO-1: WNT signaling agonist, an R-spondin (protein, UniProt Q2MKA7 21-263, looked up)", "R-spondin-1": "SRGIKGKRQRRISAEGSQACAKGCELCSEVNGCLKCSPKLFILLERNDIRQVGVCLPSCPPGYFDARNPDMNKCIKCKIEHCEACFSHNFCTKCKEGLYLHKGRCYPACPEGSSAANGTMECSSPAQCEMSEWSPWGPCSKKQQLCGFRRGSEERTRRVLHAPVGDHAACSDTKETRRCTVRRVPCPEGQKRRKGGQGRRENANRNLARKESKEAGAGSRRRKGQQQQQQQGTVGPLTSAGPA"}, "B3": {"name": "RSPO-3: WNT agonist, an R-spondin (protein, UniProt Q9BXY4 22-272, looked up)", "R-spondin-3": "QNASRGRRQRRMHPNVSQGCQGGCATCSDYNGCLSCKPRLFFALERIGMKQIGVCLSSCPSGYYGTRYPDINKCTKCKADCDTCFNKNFCTKCKSGFYLHLGKCLDNCPEGLEANNHTMECVSIVHCEVSEWNPWSPCTKKGKTCGFKRGTETRVREIIQHPSAKGNLCPPTNETRKCTVQRKKCQKGERGKKGRERKRKKPNKGESKEAIPDSKSLESSKEIPEQRENKQQQKKRKVQDKQKSVSVSTVH"}, "B4": {"name": "TGFβ3: ligand of a TGFβ receptor (protein, UniProt P10600 301-412, looked up)", "Transforming growth factor …": "ALDTNYCFRNLEENCCVRPLYIDFRQDLGWKWVHEPKGYYANFCSGPCPYLRSADTTHSTVLGLYNTLNPEASASPCCVPQDLEPLTILYYVGRTPKVEQLSNMVVKSCKCS"}, "B5": {"name": "amphiregulin (protein, UniProt P15514 101-187, looked up)", "Amphiregulin": "SVRVEQVVKPPQNKTESENTSDKPKRKKKGGKNGKNRRNRKKKNPCNAEFQNFCIHGECKYIEHLEAVTCKCQQEYFGERCGEKSMK", "notes": "ligand of ERBB1"}, "B6": {"name": "NOGGIN: protein inhibitor of BMP signaling (protein, UniProt Q13253 28-232, looked up)", "Noggin": "QHYLHIRPAPSDNLPLVDLIEHPDPIFDPKEKDLNETLLRSLLGGHYDPGFMATSPPEDRPGGGGGAAGGAEDLAELDQLLRQRPSGAMPSEIKGLEFSEGLAQGKKQRLSKKLRRKLQMWLWSQTFCPVLYAWNDLGSRFWPRYVKVGSCFSKRSCSVPEGMVCKPSKSVHLTVLRWRCQRRGGQRCGWIPIQYPIISECKCSC"}},
  "key": {"[1]": {"test_system": "human mammary epithelial cells", "assay": "Human mammary organoid cell lineage balance by flow cytometry", "conditions": "for cell lineage balance, BMP signaling modulators: ~50 ng/mL BMP2 or BMP4, ~25-200 ng/mL NOGGIN or ~10-100 nM LDN193189", "procedure": "Cryopreserved pellet A and pellet B were dissociated into a single cell suspension by treatment with 0.25% Trypsin-EDTA for 5 minutes at 37° C. (with intermittent trituration) and then centrifuged at (300 g for 5 minutes). The supernatant was discarded and the pellet was resuspended in a 100 μg/ml DNase solution for 1 minute at room temperature. The resulting cells were passed through a 37 μm strainer to obtain the single cell suspension.\nOrganoids were formed in media comprising either BMP signaling activator, ˜50 ng/mL BMP2 or ˜50 ng/mL BMP4, and in media comprising either BMP signaling inhibitor, ˜25-200 ng/mL NOGGIN or ˜10-100 nM LDN193189. Just prior to the first passage, the formed organoids were dissociated and the cell lineage balance was analyzed by flow cytometry.\nOrganoids were formed in media comprising either no ligand of an ERBB receptor family member, or comprising ˜10-50 ng/mL amphiregulin (AREG), ˜10-50 ng/mL epidermal growth factor (EGF), or ˜50-100 ng/mL heregulin/neuregulin 1 (NRG1). Just prior to the first passage, the formed organoids were dissociated and the cell lineage balance was analyzed by flow cytometry.\nJust prior to the first passage, the formed organoids were dissociated and the cell lineage balance was analyzed by flow cytometry."}, "[2]": {"test_system": "human mammary epithelial cells", "assay": "Total cell count among formed human mammary organoids", "type": "cell-based"}, "[3]": {"test_system": "mouse mammary epithelial cells", "assay": "Mouse mammary organoid formation, organoid organization by brightfield/confocal imaging", "type": "cell-based", "conditions": "for type of organoids formed from bulk (non-sorted) mammary epithelial cells: RSPO comprising media vs media free of RSPO (luminal-biased/cystic)", "method": "(§1) A single cell suspension of mouse mammary epithelial cells was isolated from mammary glands, as follows. A resected mammary gland was minced and placed in a tube containing standard culture medium, including 50 μg/ml gentamycin, collagenase, and hyaluronidase. The mammary gland was incubated for 2 hours at 37° C. in the tissue incubator. Following the incubation, the cell dissociation mixture was washed in advanced DMEM and centrifuged at 300 g for 5 minutes. Depending on the appearance of the pellet, in some cases it is desirable to resuspend the pellet in ammonium chloride to lyse contaminating red blood cells. Following, the pellet is resuspended in 0.25% Trypsin-EDTA, as above, for 5 minutes at 37° C. and then centrifuged at (300 g for 5 minutes). The supernatant was discarded and the pellet was resuspended in a 100 μg/ml DNase solution for 1 minute at room temperature. The resulting cells were passed through a 37 μm strainer to obtain the single cell suspension.\nEach well received between 0.5-1 mL of any one of the various culture media described herein.\nThe plated single cell suspension of mammary epithelial cells formed into organoids that were passaged approximately every 7-days, with 2-3 full medium changes during such 7-day period. To passage the organoids, the Matrigel domes were broken apart by pipetting in pre-warmed 0.25% Trypsin-EDTA, incubating at 37° C. for ˜ 5-15 minutes and pipetting again. The trypsinization reaction was inactivated by washing in an equal volume of Hanks Balanced Salt Solution supplemented with 2% FBS. Depending on the density and size of organoids a 1:2-1:5 split was performed, with the cells seeded as domes, as described above. Alternatively, cells would be strained through a 37 μm strainer to obtain the single cell suspension and seeded in Matrigel domes as described above.\nSingle cell suspensions of mouse mammary epithelial cells were obtained in accordance with Example 1. The single cell suspension was sorted using a BD FACSAria™ Fusion flow cytometer into three populations of cells corresponding to the ER^+, milk, and basal cell lineages, based on the differential expression of EpCAM, CD49f, and CD49b. Non-epithelial cells were further eliminated during the sorting strategy based on the expression of CD45, Ter119 and CD31. The sorted cells were seeded and cultured essentially as described in Example 2 in an organoid medium free of an exogenously-added inhibitor of BMP signaling and either comprising exogenously added RSPO-1 (˜100 ng/mL) or lacking exogenously added RSPO-1 (e.g. MammoCult™ Mouse Organoid Growth Medium, […] Technologies) (FIG. 2).\nOrganoid media were formulated to lack either exogenously added RSPO-1 or RSPO-3, and they were tested on single cell suspensions of bulk mammary epithelial cells, obtained in accordance with Example 1 and seeded and cultured as described in Example 2. […] Flow cytometry analysis of the cellular composition of organoids formed in either RSPO-comprising media or media lacking RSPO confirmed a reduction in the number of basal cells among organoids formed in the absence of WNT agonism (FIG. 3B).\nIn a follow-up experiment, organoids were formed from single cell suspensions obtained in accordance with Example 1, and seeded and cultured as described in Example 2. […] At the end of the second passage the formed organoids were processed and stained for K8, K14, and DAPI, as described in Example 3.\nThe foregoing experiments were performed in a medium that included an inhibitor of BMP signaling, thus the effect of BMP signaling inhibition on the formation of mouse mammary organoids was explored."}, "[4]": {"test_system": "human mammary epithelial cells", "assay": "Human mammary organoid formation, brightfield microscopy", "type": "cell-based", "method": "Fragments of human mammary epithelial cells were isolated from tissue samples obtained from academic collaborators, as follows. Resected tissue samples were minced in a petri dish using a scalpel to cut in a cross-hatched pattern. The minced tissue samples were placed in a dissociation flask in standard culture medium supplemented with BSA, insulin, collagenase and hyaluronidase. The flask was gently shaken overnight on an orbital shaker placed in a 37° C. tissue incubator. The following morning the floating layer of fat was removed by pipette, and the remaining liquid was transferred to a tube and briefly centrifuged at low rpm (˜80 g for 30 seconds). The pellet (A pellet) was set aside and the supernatant was further centrifuged for an incrementally longer period of time and at an incrementally higher rpm (˜200 g for 4 minutes). The pellet (B pellet) was set aside and the supernatant was further centrifuged for a still incrementally longer period of time and at an incrementally higher rpm (˜450 g for 5 minutes).\nCryopreserved pellet A and pellet B were dissociated into a single cell suspension by treatment with 0.25% Trypsin-EDTA for 5 minutes at 37° C. (with intermittent trituration) and then centrifuged at (300 g for 5 minutes). The supernatant was discarded and the pellet was resuspended in a 100 μg/ml DNase solution for 1 minute at room temperature. […]"}, "[5]": {"test_system": "mouse mammary epithelial cells", "assay": "Mouse mammary organoid cell lineage balance by flow cytometry (EpCAM, CD49f)", "type": "cell-based", "conditions": "non-sorted mouse cells; ~100 ng/mL NOGGIN and ~100 ng/mL RSPO-1 together vs free of both; 8 independent experiments; 14 days (P0)", "method": "Panels A) and B) show representative images of organoids after cells were cultured for 14 days (P0) in an R-spondin-containing (panel A) or an R-spondin-free (panel B) medium. Cells of the organoids shown in panels A) and B) were respectively analyzed by flow cytometry for expression of EpCAM and CD49f (panels C) and D)). A summary of flow cytometry data is shown in panel E. Results were confirmed in n=8 mice. Scale bars are 500 μm.\nas §1, with “The resulting cells were passed through a 37 μm strainer to obtain the single cell suspension.” left out"}},
  "data": [
    {"molecule": "B1", "values": [
      {"measurement": "cell lineage balance, BMP signaling modulators", "setting": "[1]; just prior to first passage", "value": "significant increase in basal cells and reduction in luminal cells"},
      {"measurement": "total cell count among formed organoids, BMP signaling modulators", "setting": "[2]; vs condition where BMP signaling not modulated or inhibited", "value": "a marked net loss of total cells"}
    ]},
    {"molecule": "B2", "values": [
      {"measurement": "organization of organoids formed in the absence of RSPO-1 over three successive passages", "setting": "[3]; non-sorted mouse cells, P0-P2, absence vs presence of RSPO-1, medium included BMP signaling inhibitor", "value": "cystic organization devoid of branching"},
      {"measurement": "type of organoids formed from bulk (non-sorted) mammary epithelial cells", "setting": "[3]; non-sorted mouse cells", "value": "yielded a significant number of mixed organoids"},
      {"measurement": "organoid formation from sorted ER+ lineage cells", "setting": "[3]; sorted mouse ER+ luminal cells, medium with ~100 ng/mL RSPO-1 vs lacking RSPO-1, no BMP signaling inhibitor", "value": "generally the same efficiency in either of the tested medium formulations"},
      {"measurement": "organoid organization from sorted basal lineage cells", "setting": "[3]; sorted mouse basal lineage cells, RSPO-1 (~100 ng/mL) containing medium vs RSPO-1 deficient", "value": "a predominately mixed organization"},
      {"measurement": "organoid organization from sorted milk lineage cells", "setting": "[3]; sorted mouse milk lineage cells, RSPO-1 (~100 ng/mL) containing medium vs RSPO-1 deficient (cystic)", "value": "a more mixed organization of basal, luminal and other cells"},
      {"measurement": "luminal-biased organoids with vs without exogenously-added RSPO-1", "setting": "[4]; luminal-promoting organoid medium, ~20-200 ng/mL RSPO-1", "value": "did not reveal a significant increase or reduction of luminal-biased organoids"},
      {"measurement": "lineage balance in medium free of NOGGIN and RSPO-1 vs medium comprising both", "setting": "[5]", "value": "a significant reduction of basal cells with a concomitant increase in luminal cells"}
    ]},
    {"molecule": "B3", "values": [
      {"measurement": "type of organoids formed from bulk (non-sorted) mammary epithelial cells", "setting": "[3]; non-sorted mouse cells", "value": "yielded a significant number of mixed organoids"}
    ]},
    {"molecule": "B4", "values": [
      {"measurement": "cell lineage balance, TGFβ receptor ligands", "setting": "[1]; ~50 ng/mL, just prior to first passage", "value": "results consistent with TGF β1"}
    ]},
    {"molecule": "B5", "values": [
      {"measurement": "cell lineage balance, ERBB receptor family ligands", "setting": "[1]; just prior to first passage, ~10-50 ng/mL AREG, ~10-50 ng/mL EGF, ~50-100 ng/mL NRG1", "value": "a minor or no effect on cell lineage balance"},
      {"measurement": "cell lineage balance across multiple experiments, ERBB ligands", "setting": "[1]; normalized to control lacking ERBB modulators, mean of 2 experiments", "value": "minimal impact on luminal cell percentages but profound impact on increasing basal cell percentages"},
      {"measurement": "total cell count among formed organoids, ERBB modulators", "setting": "[2]; vs control with no modulation of ERBB signaling", "value": "highest mitogenic activity"}
    ]},
    {"molecule": "B6", "values": [
      {"measurement": "cell lineage balance, BMP signaling modulators", "setting": "[1]; just prior to first passage", "value": "decreased the number of basal cells while increasing the number of luminal cells"},
      {"measurement": "formation of luminal organoids, single vs dual BMP signaling inhibitor", "setting": "[4]; media comprising NOGGIN or LDN193189 alone vs both, successive passages", "value": "appeared sufficient to bias formation of luminal organoids"},
      {"measurement": "lineage balance in medium free of NOGGIN and RSPO-1 vs medium comprising both", "setting": "[5]", "value": "a significant reduction of basal cells with a concomitant increase in luminal cells"}
    ]}
  ]
}
